The target of the assay is sHRPb-NLG (evolved sHRPb fused to neuroligin) (horseradish | not stated). Nature of the assay: split reporter.

In the case of “sHRPa-NRX (evolved sHRPa fused to neurexin)”, the signal to noise ratio (fluorescence intensity relative to background) was 1.5 to 13.4.

Source of the values: paper PMC4942342.
